Test results: patent US12365710B2, “HMGB1 protein derivatives for the removal of biofilms” (RESEARCH INSTITUTE AT NATIONWIDE CHILDREN'S HOSPITAL, priority 2018, dated 2025)
Where two headings read alike, the source gives them in different places.

How the values were obtained:
[1] = system: biofilms present in CF sputum; test: disruption of CF sputum (optical density of surrounding media); conditions: CF sputum suspensions in PBS, 37° C.; compared with Pulmozyme and anti-DNABII
Procedure: FIGS. 10A-10B: HMGB1 In specimens from biofilm-associated diseases. (FIG. 10A) Sections of OCT-embedded mucosal biomass from an NTHI-infected chinchilla middle ear were co-labeled for HMGB1 and DNABII protein for immunofluorescence microscopy. Double stranded eDNA was labeled with DAPI (white). (FIG. 10B) CF sputum incubated with antibiofilm treatments (PBS, 1:10 rabbit a-1HFEc, serum, 100 U/ml Pulmozyme® (DNase), 1 mM rHMGB1) at 37° C. for […] and optical density of surrounding media was measured at 0 hour and 2 hour.
HMGB1 disrupts biofilms present in clinical specimens: Biofilms at chronic disease sites (e.g. CF lung), consist of multiple species and by nature are difficult to eradicate. It has been shown that anti-DNABII antibodies to disrupt biofilms present in CF sputum.

NTHI biofilms = format: in vivo, chinchilla; conditions: for reduction in CFU of NTHI: 0.2 nmol to middle ear at days 4 and 5 post-challenge, day 6, vs diluent
Procedure: FIGS. 8A-8F: rHMGB1 and mHMGB1 promote biofilm resolution in an experimental otitis media model. Diluent, 0.2 nmol rHMGB1, or 0.2 nmol mHMGB1 were delivered directly to middle ears of chinchillas at 4 and 5 days post-challenge with NTHI. Animals were sacrificed 24 h later, middle ears were imaged (FIG. 8C, representative images) and, based on the criteria described in (FIG. 8A, biofilm) and (FIG. 8B, inflammation), blindly scored for presence of biofilm (FIG. 8D) and inflammation (FIG. 8F). CFU of NTH1 present in the mucosal biomass were quantified (FIG. 8E). Means and SEM are plotted. **P<0.01, ****P<0.0001.
rHMGB1 and mHMGB1 disrupt biofilms in two distinct animal models but the inflammatory response is strongly attenuated with Cys to Ser mutations: Applicant tested both rHMGB1 and mHMGB1 for their ability to treat middle ear infection and the corresponding inflammatory response using a well-established chinchilla model of experimental OM due to NTHI49,67,68 wherein adhered mucosal biofilm formation plays a key role in pathogenesis (FIG. 8A). The middle ear of mixed sex, outbred adult chinchillas were inoculated with 1000 CFU NTHI by transbullar injection. At days 4 and 5 post-challenge, at which time there is abundant biofilm present in the middle ear space, […] of rHMGB1, mHMGB1, or diluent was delivered directly to the middle ear (2 total treatments). On day 6, animals were sacrificed and middle ears were imaged and blindly scored for biofilm that remained (FIG. 8A) and mucosal inflammation (FIG. 8B). […] In contrast, MEFs from mHMGB1-treated animals had increased anti-inflammatory cytokines [IL-4 (2-fold), IL-10 (5-fold)] […] Next, Applicant determined whether rHMGB1 or mHMGB1 could prevent or […] biofilm development. For prevention, adult C57BL/6 mice were challenged with 10^7 CFU of Bc intratracheally (i.t.), and 0.2 nmol of rHMGB1 or mHMGB1 was added simultaneously. After 18 h, mice were euthanized, and bronchoalveolar lavage (BAL) and lungs were collected. Bc formed aggregates that were readily visible in lung sections probed with Bc antibody (FIG. 7A). Tissue was homogenized and CFUs were enumerated. […] This same animal model was then used to investigate lung damage 72 h post-challenge with Bc and administration of rHMGB1 or mHMGB1. Lungs were collected and tissue was fixed, embedded in paraffin, sectioned, and stained with Haematoxylin and Eosin (H&E). […] Next, Applicant assessed the ability of rHMGB1 and mHMGB1 to treat established Bc infection. Mice were challenged as above and 0.2 nmol rHMGB1 or mHMGB1 was administered 24 h later. 48 h after treatment, mice were euthanized and BAL and lungs were collected and processed as above. […]

B. cenocepacia = format: in vivo, C57BL/6 mice; conditions: 0.2 nmol administered 24 h after challenge, collected 48 h after treatment
Procedure: FIGS. 7A-7G: HMGB1 promotes clearance of S. cenocepaca from mice without inducing sepsis. C57BL/6 mice were challenged with 10^7 CFU intratracheally, and either simultaneously (prevention) or 24 h later (treatment) received 0.2 nmol of HMGB1 valiant. (FIG. 7A) Aggregates of B. cenocepacia were visible by fluorescence microscopy in lung sections probed with an α-B. cenocepacia antibody. For prevention, (FIG. 7B) bronchoalveolar lavage (BAL) collected 18 h post-inoculation (hpi) was analyzed for CFU. (FIG. 7C) Neutrophils in BAL were quantified by differential cell counting. (FIG. 7D) Lung tissue collected 72hpi was fixed, embedded, sectioned, and stained with hematoxylin & eosin (10× magnification). For treatment, 72hpi (FIG. 7E) CFUs were quantified in BAL. (FIG. 7F) Neutrophil recruitment was analyzed 24 h after intraperitoneal (i.p.) administration of HMGB1 valiants by fluorescence-activated cell sorting of peritoneal lavage stained with α-CD45, α-CD11b, and αLy-6G. (FIG. 7G) Serum TNF-α. was measured by ELISA in mice injected i.p. with 0.2 nmol HMGB1 valiants, 5 mg/kg LPS, or both. LoD: limit of detection. Bars represent SD. *P<0.05.
rHMGB1 and mHMGB1 disrupt biofilms in two distinct animal models but the inflammatory response is strongly attenuated with Cys to Ser mutations: Applicant tested both rHMGB1 and mHMGB1 for their ability to treat middle ear infection and the corresponding inflammatory response using a well-established chinchilla model of experimental OM due to NTHI49,67,68 wherein adhered mucosal biofilm formation plays a key role in pathogenesis (FIG. 8A). […] On day 6, animals were sacrificed and middle ears were imaged and blindly scored for biofilm that remained (FIG. 8A) and mucosal inflammation (FIG. 8B). […] Next, Applicant determined whether rHMGB1 or mHMGB1 could prevent or aggregate biofilm development. […] Bc formed aggregates that were readily visible in lung sections probed with Bc antibody (FIG. 7A). […] Next, Applicant assessed the ability of rHMGB1 and mHMGB1 to treat established Bc infection. […]

| Molecule | disruption of CF sputum [1] | reduction in CFU of NTHI (NTHI biofilms) | increased IL-1β in middle ear fluids (NTHI biofilms; in vivo) | increased IL-17A in middle ear fluids (NTHI biofilms; in vivo) | Bc CFU in lungs / BAL (B. cenocepacia) | Bc CFU in lungs / BAL (B. cenocepacia; listed as HMGB1) |
| --- | --- | --- | --- | --- | --- | --- |
| rHMGB1: tagless human recombinant full length HMGB1 (1-215) expressed in E. coli | can disrupt biofilms present in CF sputum | ~1000 fold | 3 fold | 2 fold | significantly fewer Bc in their lungs | significantly decreased |
| mHMGB1: engineered C45S variant of full length rHMGB1 that mimics the reduced form of HMGB1 (protein, UniProt P09429 1-215, looked up, variant C45S, full-length, engineered C45S variant of full length rHMGB1 that mimics the reduced form of HMGB1) MGKGDPKKPRGKMSSYAFFVQTCREEHKKKHPDASVNFSEFSKKSSERWKTMSAKEKGKFEDMAKADKARYEREMKTYIPPKGETKKKFKDPNAPKRPPSAFFLFCSEYRPKIKGEHPGLSIGDVAKKLGEMWNNTAADDKQPYEKKAAKLKEKYEKDIAAYRAKGKPDAAKKGVVKAEKSKKKKEEEEDEEDEEDEEEEEDEEDEDEEEDDDDE |  | ~1000 fold |  |  | significantly fewer Bc in their lungs |  |
| B-linker Box: HMGB1 B Box with N- and C-terminal linker (80-179; 80 to 176 in b258), 97 amino acid (protein, UniProt P09429 80-179, looked up, fragment) PPKGETKKKFKDPNAPKRPPSAFFLFCSEYRPKIKGEHPGLSIGDVAKKLGEMWNNTAADDKQPYEKKAAKLKEKYEKDIAAYRAKGKPDAAKKGVVKAE | disrupted sputum effectively |  |  |  |  |  |
